Data from patent US20140072613A1, “Compositions and Methods for Treating Cutaneous Scarring” (priority 2012, published 2014).

Legend:
Test in all cases: cell-based or functional assay
[1] = target: FGFR2(h) (human) (UniProt P21802)
[2] = target: FGFR3(h) (human) (UniProt P22607)
[3] = target: TLK2(h) (human) (UniProt Q86UE8)
[4] = target: T1, DCAMKL2(h) (human) (UniProt Q8N568)
T1 sequence (looked up): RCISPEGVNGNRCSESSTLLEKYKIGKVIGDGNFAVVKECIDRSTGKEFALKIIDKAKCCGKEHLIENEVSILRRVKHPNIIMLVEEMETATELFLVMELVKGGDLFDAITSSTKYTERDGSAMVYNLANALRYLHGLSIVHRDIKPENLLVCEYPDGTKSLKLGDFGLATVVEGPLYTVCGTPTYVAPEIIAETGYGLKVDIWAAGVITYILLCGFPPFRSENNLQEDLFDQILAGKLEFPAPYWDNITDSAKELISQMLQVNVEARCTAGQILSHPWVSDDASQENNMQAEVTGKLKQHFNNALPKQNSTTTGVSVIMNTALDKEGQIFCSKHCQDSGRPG

[5] = target: PKA(h) (human) (UniProt P17612)
[6] = target: T2, TBK1(h) (human) (UniProt Q9UHD2)
T2 sequence (looked up): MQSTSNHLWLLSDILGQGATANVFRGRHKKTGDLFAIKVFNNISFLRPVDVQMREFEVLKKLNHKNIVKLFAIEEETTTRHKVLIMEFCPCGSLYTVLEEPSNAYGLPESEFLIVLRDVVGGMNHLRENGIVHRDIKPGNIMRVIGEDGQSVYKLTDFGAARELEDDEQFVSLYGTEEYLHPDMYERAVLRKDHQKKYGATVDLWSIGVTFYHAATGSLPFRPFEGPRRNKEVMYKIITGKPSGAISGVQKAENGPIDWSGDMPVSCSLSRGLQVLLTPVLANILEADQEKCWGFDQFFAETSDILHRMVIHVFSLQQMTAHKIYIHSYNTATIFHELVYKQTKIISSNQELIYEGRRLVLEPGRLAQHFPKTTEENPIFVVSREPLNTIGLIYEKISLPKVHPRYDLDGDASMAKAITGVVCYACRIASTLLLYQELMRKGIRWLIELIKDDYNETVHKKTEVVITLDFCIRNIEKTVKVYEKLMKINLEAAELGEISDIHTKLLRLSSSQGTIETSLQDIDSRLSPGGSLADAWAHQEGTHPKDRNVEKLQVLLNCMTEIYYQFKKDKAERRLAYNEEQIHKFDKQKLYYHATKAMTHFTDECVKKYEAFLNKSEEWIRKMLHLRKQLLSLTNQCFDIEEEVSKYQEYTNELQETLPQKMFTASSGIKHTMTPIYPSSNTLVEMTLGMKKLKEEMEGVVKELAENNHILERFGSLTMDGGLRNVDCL

[7] = target: Abl(Q252H)(h) (human) (UniProt P00519)
Sequence of Abl(Q252H)(h) (human) (P00519 27-1130 Q252H limits assumed): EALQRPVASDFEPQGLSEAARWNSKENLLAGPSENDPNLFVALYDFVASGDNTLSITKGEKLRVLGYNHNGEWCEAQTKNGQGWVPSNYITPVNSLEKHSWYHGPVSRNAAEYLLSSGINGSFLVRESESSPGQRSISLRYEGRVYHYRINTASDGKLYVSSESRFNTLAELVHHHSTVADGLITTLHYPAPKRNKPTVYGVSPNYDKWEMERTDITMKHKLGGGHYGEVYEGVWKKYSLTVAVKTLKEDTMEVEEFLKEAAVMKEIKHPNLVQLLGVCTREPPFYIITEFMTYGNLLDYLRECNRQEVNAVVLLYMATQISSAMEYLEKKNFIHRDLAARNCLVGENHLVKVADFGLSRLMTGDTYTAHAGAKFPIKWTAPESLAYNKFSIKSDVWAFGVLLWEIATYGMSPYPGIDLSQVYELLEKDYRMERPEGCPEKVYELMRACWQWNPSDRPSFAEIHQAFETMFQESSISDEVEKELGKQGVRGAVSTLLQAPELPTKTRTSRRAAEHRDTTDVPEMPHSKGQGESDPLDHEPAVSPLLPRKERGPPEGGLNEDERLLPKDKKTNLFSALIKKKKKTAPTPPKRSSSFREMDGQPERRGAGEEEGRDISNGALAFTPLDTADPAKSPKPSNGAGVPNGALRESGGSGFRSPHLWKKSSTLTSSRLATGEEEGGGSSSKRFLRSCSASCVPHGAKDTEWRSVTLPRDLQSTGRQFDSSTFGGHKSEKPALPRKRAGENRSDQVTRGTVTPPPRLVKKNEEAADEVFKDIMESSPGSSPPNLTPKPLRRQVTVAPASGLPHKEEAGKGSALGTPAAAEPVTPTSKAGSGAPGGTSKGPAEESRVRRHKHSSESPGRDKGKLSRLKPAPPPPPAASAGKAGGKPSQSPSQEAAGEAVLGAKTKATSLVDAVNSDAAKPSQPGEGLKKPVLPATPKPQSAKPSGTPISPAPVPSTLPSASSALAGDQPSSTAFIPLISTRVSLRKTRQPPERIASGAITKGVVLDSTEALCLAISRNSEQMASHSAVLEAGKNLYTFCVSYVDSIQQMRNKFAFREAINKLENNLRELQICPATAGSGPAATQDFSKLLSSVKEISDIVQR

[8] = target: T3, ULK2(h) (human) (UniProt Q8IYT8)
T3 sequence (looked up): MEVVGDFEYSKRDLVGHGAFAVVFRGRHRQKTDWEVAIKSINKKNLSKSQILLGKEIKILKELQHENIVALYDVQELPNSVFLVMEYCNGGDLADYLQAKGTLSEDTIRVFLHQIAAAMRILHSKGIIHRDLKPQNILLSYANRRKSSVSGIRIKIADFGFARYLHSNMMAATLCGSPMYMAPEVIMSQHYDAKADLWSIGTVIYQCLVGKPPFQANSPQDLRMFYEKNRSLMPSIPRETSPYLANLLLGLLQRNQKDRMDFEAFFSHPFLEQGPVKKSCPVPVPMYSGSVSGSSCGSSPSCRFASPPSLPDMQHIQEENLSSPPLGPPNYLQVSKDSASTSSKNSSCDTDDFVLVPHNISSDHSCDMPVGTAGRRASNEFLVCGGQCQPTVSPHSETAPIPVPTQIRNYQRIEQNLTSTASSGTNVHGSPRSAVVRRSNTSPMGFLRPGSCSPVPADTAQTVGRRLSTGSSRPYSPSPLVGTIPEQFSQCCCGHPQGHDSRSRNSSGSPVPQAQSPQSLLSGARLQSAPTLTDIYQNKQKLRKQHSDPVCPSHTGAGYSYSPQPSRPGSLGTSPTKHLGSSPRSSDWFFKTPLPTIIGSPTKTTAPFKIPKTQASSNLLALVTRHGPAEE

[9] = target: MRCKβ(h) (human) (UniProt Q9Y5S2)
[10] = target: EGFR(T790M)(h) (human) (UniProt P00533)
[11] = target: CDK7/cyclinH/MAT1(h) (human) (UniProt P50613)
Sequence of CDK7/cyclinH/MAT1(h) (human) (P50613 whole entry, chain 1 of 3): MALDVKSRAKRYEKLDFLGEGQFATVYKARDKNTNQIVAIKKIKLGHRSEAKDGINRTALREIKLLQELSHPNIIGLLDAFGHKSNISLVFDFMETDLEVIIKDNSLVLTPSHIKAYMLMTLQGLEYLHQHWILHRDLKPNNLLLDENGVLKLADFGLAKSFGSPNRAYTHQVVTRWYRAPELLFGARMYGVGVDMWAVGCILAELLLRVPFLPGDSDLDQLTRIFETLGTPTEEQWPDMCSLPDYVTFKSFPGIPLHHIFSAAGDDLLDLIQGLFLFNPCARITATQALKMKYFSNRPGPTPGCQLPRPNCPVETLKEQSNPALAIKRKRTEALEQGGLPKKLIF
Sequence of CDK7/cyclinH/MAT1(h) (human) (P51946 whole entry, chain 2 of 3, further chain): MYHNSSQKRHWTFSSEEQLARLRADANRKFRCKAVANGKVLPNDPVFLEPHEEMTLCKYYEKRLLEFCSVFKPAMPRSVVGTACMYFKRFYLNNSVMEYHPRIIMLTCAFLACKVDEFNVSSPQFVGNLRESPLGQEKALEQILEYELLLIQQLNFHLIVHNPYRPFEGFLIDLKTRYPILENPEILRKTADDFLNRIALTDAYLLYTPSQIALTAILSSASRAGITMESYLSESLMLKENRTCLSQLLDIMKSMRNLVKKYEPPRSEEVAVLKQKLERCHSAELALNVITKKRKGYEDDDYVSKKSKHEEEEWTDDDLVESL
Sequence of CDK7/cyclinH/MAT1(h) (human) (P51948 whole entry, chain 3 of 3, further chain): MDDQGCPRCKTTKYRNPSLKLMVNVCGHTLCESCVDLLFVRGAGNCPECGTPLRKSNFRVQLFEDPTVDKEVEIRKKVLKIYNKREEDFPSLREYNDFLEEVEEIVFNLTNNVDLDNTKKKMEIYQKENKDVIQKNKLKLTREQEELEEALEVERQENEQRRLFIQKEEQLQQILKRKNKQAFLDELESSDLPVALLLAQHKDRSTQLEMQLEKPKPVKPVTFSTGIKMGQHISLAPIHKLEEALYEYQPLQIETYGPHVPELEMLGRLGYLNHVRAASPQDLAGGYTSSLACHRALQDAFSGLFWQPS

[12] = target: EphB2(h) (human) (UniProt P29323)
Sequence of EphB2(h) (human) (P29323 565-986 limits assumed): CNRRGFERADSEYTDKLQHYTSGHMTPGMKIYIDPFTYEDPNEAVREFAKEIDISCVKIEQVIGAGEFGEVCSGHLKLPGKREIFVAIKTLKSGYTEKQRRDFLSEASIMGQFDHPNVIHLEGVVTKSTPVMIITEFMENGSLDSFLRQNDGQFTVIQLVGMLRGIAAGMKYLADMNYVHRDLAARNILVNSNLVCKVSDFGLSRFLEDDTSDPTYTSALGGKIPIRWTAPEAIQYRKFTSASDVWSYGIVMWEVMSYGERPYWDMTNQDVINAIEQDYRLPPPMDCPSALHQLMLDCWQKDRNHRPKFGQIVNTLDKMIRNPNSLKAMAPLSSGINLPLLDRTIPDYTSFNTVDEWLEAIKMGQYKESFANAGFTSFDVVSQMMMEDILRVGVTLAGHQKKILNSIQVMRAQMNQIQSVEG

[13] = target: Met(h) (human) (UniProt P08581)
Sequence of Met(h) (human) (P08581 956-1390 limits assumed): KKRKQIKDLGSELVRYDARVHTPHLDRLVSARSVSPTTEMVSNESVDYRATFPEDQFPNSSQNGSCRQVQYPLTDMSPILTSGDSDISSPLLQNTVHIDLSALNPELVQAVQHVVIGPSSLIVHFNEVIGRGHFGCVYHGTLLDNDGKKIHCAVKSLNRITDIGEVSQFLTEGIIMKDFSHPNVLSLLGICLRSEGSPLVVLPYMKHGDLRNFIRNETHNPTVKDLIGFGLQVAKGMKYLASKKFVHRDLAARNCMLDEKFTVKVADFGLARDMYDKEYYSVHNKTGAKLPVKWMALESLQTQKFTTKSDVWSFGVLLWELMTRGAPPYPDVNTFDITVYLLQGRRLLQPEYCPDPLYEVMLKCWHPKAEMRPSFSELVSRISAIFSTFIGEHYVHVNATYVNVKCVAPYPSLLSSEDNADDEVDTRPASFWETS

[14] = target: MAPKAP-K3(h) (human) (UniProt Q16644)
Sequence of MAPKAP-K3(h) (human) (Q16644 whole entry): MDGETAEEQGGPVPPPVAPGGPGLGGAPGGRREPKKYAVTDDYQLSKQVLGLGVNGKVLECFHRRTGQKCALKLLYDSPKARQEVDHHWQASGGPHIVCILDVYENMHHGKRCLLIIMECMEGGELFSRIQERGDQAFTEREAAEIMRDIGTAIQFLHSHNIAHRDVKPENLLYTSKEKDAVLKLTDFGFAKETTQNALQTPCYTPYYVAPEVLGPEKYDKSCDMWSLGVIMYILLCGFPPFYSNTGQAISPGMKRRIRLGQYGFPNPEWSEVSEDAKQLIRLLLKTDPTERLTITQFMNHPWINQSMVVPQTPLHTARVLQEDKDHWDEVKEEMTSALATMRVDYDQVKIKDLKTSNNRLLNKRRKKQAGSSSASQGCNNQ

[15] = target: WNK2(h) (human) (UniProt Q9Y3S1)
Sequence of WNK2(h) (human) (Q9Y3S1 166-489 limits assumed): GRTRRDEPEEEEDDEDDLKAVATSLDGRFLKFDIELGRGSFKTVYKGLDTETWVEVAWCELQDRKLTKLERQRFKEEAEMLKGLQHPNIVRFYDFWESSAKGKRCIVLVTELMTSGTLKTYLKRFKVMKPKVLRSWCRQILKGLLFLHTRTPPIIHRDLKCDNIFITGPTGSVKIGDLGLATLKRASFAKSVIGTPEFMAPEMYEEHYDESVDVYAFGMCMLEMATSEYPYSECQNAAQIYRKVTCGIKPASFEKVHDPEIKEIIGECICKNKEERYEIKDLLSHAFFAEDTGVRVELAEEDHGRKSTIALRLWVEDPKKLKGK

[16] = target: NEK7(h) (human) (UniProt Q8TDX7)
Sequence of NEK7(h) (human) (Q8TDX7 whole entry): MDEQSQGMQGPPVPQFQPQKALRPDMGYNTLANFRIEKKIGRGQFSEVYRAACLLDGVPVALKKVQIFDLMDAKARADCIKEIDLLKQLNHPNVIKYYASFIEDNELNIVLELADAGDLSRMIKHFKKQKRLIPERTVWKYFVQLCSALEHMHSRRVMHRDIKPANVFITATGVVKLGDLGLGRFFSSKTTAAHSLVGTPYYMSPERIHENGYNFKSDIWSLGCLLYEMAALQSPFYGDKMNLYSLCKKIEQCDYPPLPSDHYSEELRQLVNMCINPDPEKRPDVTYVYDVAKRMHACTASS

[17] = target: T4, Aurora-A(h) (human) (UniProt O14965)
T4 sequence (looked up): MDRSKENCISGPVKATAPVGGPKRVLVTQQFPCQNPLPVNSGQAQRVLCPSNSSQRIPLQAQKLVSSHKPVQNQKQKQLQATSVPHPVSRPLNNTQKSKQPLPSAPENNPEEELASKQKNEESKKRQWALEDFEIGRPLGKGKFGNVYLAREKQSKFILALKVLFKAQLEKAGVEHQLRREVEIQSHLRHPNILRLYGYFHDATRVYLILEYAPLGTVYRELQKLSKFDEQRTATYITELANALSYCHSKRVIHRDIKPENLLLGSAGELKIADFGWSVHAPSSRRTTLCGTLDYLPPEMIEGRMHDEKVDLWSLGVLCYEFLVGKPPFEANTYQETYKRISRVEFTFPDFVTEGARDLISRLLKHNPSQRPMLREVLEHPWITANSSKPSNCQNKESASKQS

[18] = target: Abl(M351T)(h) (human) (UniProt P00519)
Sequence of Abl(M351T)(h) (human) (P00519 27-1130 M351T limits assumed): as the sequence (P00519 27-1130 Q252H limits assumed) above, with H226Q, M325T counted along it

[19] = target: LIMK1(h) (human) (UniProt P53667)
Sequence of LIMK1(h) (human) (P53667 285-638 limits assumed): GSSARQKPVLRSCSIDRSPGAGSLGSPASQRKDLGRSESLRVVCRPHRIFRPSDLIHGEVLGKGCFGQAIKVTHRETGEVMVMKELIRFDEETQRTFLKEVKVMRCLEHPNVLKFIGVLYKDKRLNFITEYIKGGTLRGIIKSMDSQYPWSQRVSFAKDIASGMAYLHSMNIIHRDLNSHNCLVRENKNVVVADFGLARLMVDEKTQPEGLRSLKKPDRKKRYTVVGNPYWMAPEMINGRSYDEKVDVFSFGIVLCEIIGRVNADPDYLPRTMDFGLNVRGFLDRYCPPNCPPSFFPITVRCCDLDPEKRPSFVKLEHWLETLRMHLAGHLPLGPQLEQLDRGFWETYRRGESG

[20] = target: CDK6/cyclinD3(h) (human) (UniProt Q00534)

Sequence of FGFR2(h) (human) (P21802 456-770 limits assumed): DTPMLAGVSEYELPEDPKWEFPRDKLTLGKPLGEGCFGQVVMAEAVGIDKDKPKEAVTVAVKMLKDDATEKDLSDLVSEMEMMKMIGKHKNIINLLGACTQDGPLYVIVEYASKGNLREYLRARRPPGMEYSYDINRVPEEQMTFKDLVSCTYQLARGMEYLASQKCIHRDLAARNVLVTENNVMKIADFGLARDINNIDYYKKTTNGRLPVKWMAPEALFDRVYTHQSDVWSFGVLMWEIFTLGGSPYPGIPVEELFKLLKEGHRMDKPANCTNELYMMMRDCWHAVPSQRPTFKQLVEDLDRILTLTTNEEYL

% activity, 100 µM [1]: 12%
% activity, 100 µM [2]: 10%
% activity, 100 µM [3]: 133%
% activity, 100 µM [4]: 56%
% activity, 100 µM [5]: 118%
% activity, 100 µM [6]: 16%
% activity, 100 µM [7]: 40%
% activity, 100 µM [8]: 124%
% activity, 100 µM [9]: -10%
% activity, 100 µM [10]: 70%
% activity, 100 µM [11]: 15%
% activity, 100 µM [12]: 70%
% activity, 100 µM [13]: 27%
% activity, 100 µM [14]: 9%
inhibition of kinase activity at 100 µM [14]: > 65%
% activity, 100 µM [15]: 8%
% activity, 100 µM [16]: 89%
% activity, 100 µM [17]: 110%
% activity, 100 µM [18]: 61%
% activity, 100 µM [19]: 87%
% activity, 100 µM [20]: 23%
Substance: MMI-0500 (peptide)
